Reference: patent publication US20150344570A1 (published 2015)
Changes are numbered by the printed parent chain. Names may count otherwise.

T1: FcγRIIa H extracellular domain with C-terminal His tag (human, UniProt P12318 34-217)
T1 construct: extracellular domain; Soluble receptor, H131 allotype; also called FcgRIIa H; FcgRIIaH; not shown: His tag at the C terminus
T1 sequence (looked up): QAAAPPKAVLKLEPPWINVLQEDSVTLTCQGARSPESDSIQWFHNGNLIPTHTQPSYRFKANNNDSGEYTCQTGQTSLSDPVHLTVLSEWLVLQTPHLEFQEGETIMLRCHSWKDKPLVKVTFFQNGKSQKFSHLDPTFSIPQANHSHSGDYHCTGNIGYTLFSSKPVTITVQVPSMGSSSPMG

T2: FcγRIIa R extracellular domain with C-terminal His tag (human, UniProt P12318 34-217)
T2 construct: extracellular domain; Soluble receptor, R131 allotype; also called FcgRIIa R; FcgRIIaR; not shown: His tag at the C terminus
T2 sequence (looked up): T1 sequence (looked up) with H134R

B1: GpH7-Kn033/GpH7-Hl033/GpL16-k0 (antibody, human IgG1, kappa)
heavy 1: not shown
heavy 2: not shown
light: DIVMTQSPLSLPVTPGEPASISCQASESLVHSNRNTYLHWYLQKPGQSPQLLIYKVSNRFSGVPDRFSGSGSGTDFTLKISRVEAEDVGVYYCSQNTHVPPTFGQGTKVEIERTVAAPSVFIFPPSDEQLKSGTASVVCLLNNFYPREAKVQWKVDNALQSGNSQESVTEQDSKDSTYSLSSTLTLSKADYEKHKVYACEVTHQGLSSPVTKSFNRGEC
notes: Anti-glypican-3 IgG1 (G1d, C-terminal Gly-Lys removed) with knobs-into-holes alterations only; also called Kn033/Hl033
B2: GpH7-Kn045/GpH7-Hl055/GpL16-k0 (antibody, human IgG1, kappa)
heavy 1: QVQLVQSGAEVKKPGASVTVSCKASGYTFTDYEMHWIRQPPGEGLEWIGAIDPKTGDTAYSESFQDRVTLTADKSTSTAYMELSSLTSEDTAVYYCTRFYSYTYWGQGTLVTVSSASTKGPSVFPLAPSSKSTSGGTAALGCLVKDYFPEPVTVSWNSGALTSGVHTFPAVLQSSGLYSLSSVVTVPSSSLGTQTYICNVNHKPSNTKVDKKVEPKSCDKTHTCPPCPAPEYYAGPSVFLFPPKPKDTLMISRTPEVTCVVVDVSDEDPEVKFNWYVDGVEVHNAKTKPREEQYNATYRVVSVLTVLHQDWLNGKEYKCKVSNKALPAPIEKTISKAKGQPREPQVCTLPPSRDELTKNQVSLWCLVKGFYPSDIAVEWESNGQPENNYKTTPPVLDSDGSFFLYSKLTVDKSRWQQGNVFSCSVMHEALHNHYTQKSLSLSP
heavy 2: QVQLVQSGAEVKKPGASVTVSCKASGYTFTDYEMHWIRQPPGEGLEWIGAIDPKTGDTAYSESFQDRVTLTADKSTSTAYMELSSLTSEDTAVYYCTRFYSYTYWGQGTLVTVSSASTKGPSVFPLAPSSKSTSGGTAALGCLVKDYFPEPVTVSWNSGALTSGVHTFPAVLQSSGLYSLSSVVTVPSSSLGTQTYICNVNHKPSNTKVDKKVEPKSCDKTHTCPPCPAPELLAGPDVFLFPPKPKDTLMISRTPEVTCVVVDVSHEDPEVKFNWYVDGVEVHNAKTKPREELYNSTYRVVSVLTVLHQDWLNGKEYKCKVSNKALPMPEEKTISKAKGQPREPQVYTLPPSRCELTKNQVSLSCAVKGFYPSDIAVEWESNGQPENNYKTTPPVLDSDGSFFLVSKLTVDKSRWQQGNVFSCSVMHEALHNHYTQKSLSLSP
light: B1 light
notes: Heterodimerized anti-glypican-3 IgG1, knobs-into-holes; also called Kn045/Hl055
B3: GpH7-Kn056/GpH7-Hl055/GpL16-k0 (antibody, human IgG1, kappa)
heavy 1: B2 heavy 1 with Q293L
heavy 2: B2 heavy 2
light: B1 light
notes: Heterodimerized anti-glypican-3 IgG1, knobs-into-holes; also called Kn056/Hl055
B4: GpH7-Kn045/GpH7-Hl048/GpL16-k0 (antibody, human IgG1, kappa)
heavy 1: B2 heavy 1
heavy 2: B2 heavy 2 with L293Q, M328K
light: B1 light
notes: Heterodimerized anti-glypican-3 IgG1, knobs-into-holes; also called Kn045/Hl048
B5: GpH7-Kn037/GpH7-Hl036/GpL16-k0 (antibody, human IgG1, kappa)
heavy 1: B2 heavy 1 with Y232L, Y233L, S237D, D266H, A296S, I330E
heavy 2: B2 heavy 2 with L293Q, M328A
light: B1 light
notes: Anti-glypican-3 IgG1, knobs-into-holes; also called Kn037/Hl036
B6: GpH7-Kn032/GpH7-Hl032/GpL16-k0 (antibody, human IgG1, kappa)
heavy 1: B2 heavy 2 with A234G, L293Q, M328L, Y347C, C354D, S364W, A366L, V405Y
heavy 2: B2 heavy 2 with A234G, L293Q, M328L
light: B1 light
notes: Anti-glypican-3 IgG1, knobs-into-holes; both H chains carry S239D/A330L/I332E; also called Kn032/Hl032
B7: GpH7-A48/GpH7-B3-03-20W/GpL16-k0 (antibody, human IgG1, kappa)
heavy 1: B2 heavy 1 with Y232L, Y233L, A234G, D266H, A296S, P327R, C347Y, D354K, W364T, H433R
heavy 2: not shown
light: B1 light
notes: H1 P329R; H2 G236W
B8: GpH7-A48/GpH7-B3-15-02A/GpL16-k0 (antibody, human IgG1, kappa)
heavy 1: B2 heavy 1 with Y232L, Y233L, A234G, D266H, A296S, P327R, C347Y, D354K, W364T, H433R
heavy 2: not shown
light: B1 light
notes: H1 P329R; H2 S298A
B9: GpH7-A5/GpH7-HA11/GpL16-k0 (antibody, human IgG1, kappa)
heavy 1: not shown
heavy 2: B2 heavy 1 with Y232L, Y233L, A234G, D266H, P327R, C347Y, W364T, K437E
light: B1 light
notes: H2 S298A and P329R
B10: GpH7-A5/GpH7-HA6/GpL16-k0 (antibody, human IgG1, kappa)
heavy 1: not shown
heavy 2: B2 heavy 1 with Y232L, Y233L, A234W, D266H, A296S, P327R, C347Y, W364T, K437E
light: B1 light
notes: H2 G236W and P329R

Target: T1, FcγRIIa H extracellular domain with …
Experiment: SPR (Biacore); ratio KD for FcγRIIb / KD for FcγRIIa H
Protocol: (§1) These antibodies were assessed for the binding activity to each FcγR according to the method described in Reference Example 2.
(§2) Analysis of interaction between objective antibody and the FcγR was carried out using Biacore T100 (GE Healthcare). HBS-EP+ (GE Healthcare) was used as the running buffer, and the measurement temperature was set to 25° C. Chips produced by immobilizing the antigen peptide by the amine coupling method to a Series S Sencor Chip CM5 (GE Healthcare), or alternatively, chips produced by allowing preliminarily biotinylated antigen peptides to interact with and immobilize onto a Series S Sensor Chip SA (certified) (GE Healthcare) were used. Antibodies of interest were captured onto an antigen peptide-immobilized chip, and allowed to interact to each FcγR diluted with running buffer. To regenerate and repeatedly use the chip, the antibodies captured on the chip were washed off by reacting 10 mM glycine-HCl, pH 1.5.

A/I ratio	Binder
6.2	B1
8.3	B2
8.7	B3
9.5	B4
8.6	B5
0.93	B6

Target: T2, FcγRIIa R extracellular domain with …
Experiment: SPR (Biacore); ratio KD for FcγRIIb / KD for FcγRIIa R
Protocol: as §1, §2

A/I ratio	Binder
4.9	B1
18	B2
16	B3
22	B4
13	B5
1.8	B6

Target: FcγRIIIa extracellular domain with C-terminal His tag (human, UniProt P08637 17-208)
Experiment: SPR (Biacore), relative binding activity; GpH7-A5/GpH7-B3/GpL16-k0 = 100

Chain of FcγRIIIa extracellular domain with C-terminal His tag (P08637 17-208): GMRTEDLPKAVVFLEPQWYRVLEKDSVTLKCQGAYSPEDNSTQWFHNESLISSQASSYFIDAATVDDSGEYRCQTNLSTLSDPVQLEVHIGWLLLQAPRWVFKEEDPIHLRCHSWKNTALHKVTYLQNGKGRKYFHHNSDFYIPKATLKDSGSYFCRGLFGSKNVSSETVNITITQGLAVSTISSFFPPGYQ

FcγRIIIa BINDING ACTIVITY	Binder
13%	B7
47%	B8
84%	B9
56%	B10
